Assay results published in doi:10.1101/551788.

Biological target: Tom20.CIB.GFP (not stated | A. thaliana)
Assay: light-induced recruitment to mitochondria

Substance	half-life of association with the OMM [min]
Cry2(1-531).mCh (from UniProt Q96524 1-531) (domain or fragment)	6.25
Cry2(1-531).L348F.mCh (from UniProt Q96524 1-531) (domain or fragment)	32.8
